According to US20150335719A1, “Intravitreal Injection of a Chimeric Phage Endolysin Ply187; Protection from Staphylococcus aureus Endophthalmitis” (priority 2014, published 2015):

Key:
S. aureus strain RN6390 [1] = test: Inoculum effect study in vitro; assay type: cell-based, Staphylococcus aureus; conditions: dilutions 1:10,000 to 1:10, 1 h at MIC
Description: FIGS. 4 A, B and C depict the effect of chimeric Ply187AN-KSH3b on bacterial growth in vivo and in the vitreous humor (VH) in vitro and with increasing inoculums in vitro respectively. […] Twenty-four hours after the treatment, the eyes were enucleated, homogenized and the bacterial burden was estimated via serial dilution plating. FIG. 4B depicts a test showing the effect of the vitreous humor on Ply187AN-KSH3b antimicrobial activity where Ply187AN-KSH3b was mixed with calf vitreous humor and inoculated with 10^5 CFU of S. aureus. The survival of the bacteria was enumerated by CFU count at 2, 4 and 6 h of incubation. Statistical analysis was performed using unpaired student's t test (*, p<0.05; **, p<0.005; ***, p<0.0005). […] An increasing number of dilutions (1:10,000 to 1:10) of logarithmic phase of S. aureus (RN6390 strain) were treated with Ply187AN-KSH3b for 1 h followed by CFU enumeration on TSA plates. Statistical analysis was performed using unpaired student's t test (*, p<0.05; **, p<0.005; ***, p<0.0005).
To determine the effect of Vitreous Humor (VH) on antimicrobial activity of chimeric Ply187AN-KSH3b in vitro, bacteria (10^5 CFU) were incubated with chimeric Ply187AN-KSH3b in the presence of calf VH. Following incubation at 37° C. for the desired time, bacterial growth in VH was enumerated by serial dilution plating. […]

S. aureus strain RN6390 [2] = test: Resistance development assay by repeated exposure in an MIC assay; assay type: cell-based, Staphylococcus aureus; conditions: RN6390, up to 10 rounds of exposure
Procedure: Error bars represent SEM for three independent experiments performed in triplicates. […] Cells surviving at half (½) of the MIC value were used as an inoculum for each subsequent round of exposure. The change in susceptibility is recorded and presented as fold change resistance from day 1 to 10 of exposure and also after 5 days of growth (without any selection pressure) following the 10th day (represented as 10+5). The data represent means±SEM of two independent experiments performed in triplicate.
To verify and quantify the lytic activity against live S. aureus, we have tested Ply187AN-KSH3b in the Turbidity Reduction Assay. The turbidity assay measures the drop in optical density (OD) resulting from lysis of the target bacteria with the phage endolysin-derived protein. Turbidity reduction assays by chimeric Ply187AN-KSH3b were performed in a 96 well plate as described previously by Becker et al. (2009a, 2009b, supra). Briefly, S. aureus strains/isolates RN6390, USA 300, and clinical isolates R2932, R2952 and R3000 were grown to logarithmic phase (OD600 0.4-0.6) at 37° C. in tryptic Soy broth (TSB). The culture was harvested by centrifugation and the pellet was resuspended in assay buffer (400 mM NaCl, 20 mM Tris HCl, 1% glycerol, pH 7.5). Bacterial cultures (100 μl/well) were mixed with 100 μl of (as per MIC) of chimeric Ply187AN-KSH3b protein diluted in the same assay buffer. The reduction in the turbidity was measured after every 5 min up to 1 h using a micro plate reader. EB diluted in the same assay buffer (without chimeric Ply187AN-KSH3b protein) was used as a control (EB C). Resistance development against chimeric Ply187AN-KSH3b was tested using repeated exposure in an MIC assay as described by Rodriguez-Rubio and co-workers (Rodriguez-Rubio et al., PLoS One 8:e64671.). In brief, bacterial cultures (10^5 CFU/well) were exposed overnight to a 2-fold serial dilution of chimeric Ply187AN-KSH3b, lysostaphin, and gentamicin, where the latter serve as controls. […]

B1: Ply187AN-KSH3b: staphylococcal peptidoglycan hydrolase fusion protein: endopeptidase domain of prophage endolysin Ply187 plus SH3b cell wall-binding domain of phage K endolysin LysK (SEQ ID NO:1) (protein)
chain: MALPKTGKPTAKQVVDWAINLIGSGVDVDGYYGRQCWDLPNYIFNRYWNFKTPGNARDMAWYRYPEGFKVFRNTSDFVPKPGDIAVWTGGNYNWNTWGHTGIVVGPSTKSYFYSVDQNWNNSNSYVGSPAAKIKHSYFGVTHFVRPAYKAEPKPTPPLESTPATRPVTGSWKKNQYGTWYKPENATFVNGNQPIVTRIGSPFLNAPVGGNLPAGATIVYDEVCIQAGHIWIGYNAYNGNRVYCPVRTCQGVPPNQIPGVAWGVFKVEHHHHHH
modifications: Chemically Synthesized Fusion Protein
With B1 the “activity with increasing bacterial numbers” value (S. aureus strain RN6390 [1]) was “no reduction in Ply187AN-KSH3b activity” and the “fold change in resistance” value (S. aureus strain RN6390 [2]) was “failed to develop any resistance”.
